Assay results reported in patent US20230067757A1 (NOVAROCK BIOTHERAPEUTICS, published 2023).
Numbering of substitutions follows the chain as printed.

B1: Hu-11 (antibody, V domains shown)
VH: QVHLVQSGAEVKKPGASVKVSCKASGYTFTSYYIHWVRQAPGQGLEWMGIINPSGGNTIYAQKFQGRVTMTRDTSTTTVYVELSSLRSEDTAVYYCARDHYDILTGYYPLYYGMDVWGQGTTVTVSS
VL: SYELTQPLSVSVALGQTARITCGGNNIGSKNVHWYQQKPGQAPVLVIYRDSNRPSGIPERFSGSKSGNTATLTISRAQAGDEADYYCQVWDSSTAVFGGGTQLTAL
B2: Hu-1 (antibody, V domains shown)
VH: QVQLVESGGGVVQPGRSLRLSCAASGFTFSNYGMYWVRQAPGKGLEWVAVIWYDGSNKNYADSVKGRFTISRDNSKNTLNLQMNSLRAEDTAVYYCARRGYDILTGYDYYGMDVWGQGTTVTVSA
VL: QTVVTQEPSFSVSPGGTVTLTCGLSSGSVSTSYYPSWYQQTPGQAPRTLIYRTNTRSSGVPDRFSGSILGNKAALTISGAQAPDESNYYCVLYMGSGIWVFGGGTKLTVL
B3: Hu-8 (antibody, V domains shown)
VH: QVQLVESGGGVVQPGRSLRLSCAASGFTFSSYGMHWVRQAPGKGLEWVAVIWYDGSNKKYADSVKGRFTISRDNSKNTLYLQMNSLRAEDTAVYYCARRYDVLTAYPYYFYYNMDVWGPGTTVTVSS
VL: B2 VL with S25N, R52S, S78T, P83D, N87D
B4: Hu-4 (antibody, V domains shown)
VH: B2 VH with N31F, Y35H, A61V, N80Y, G100N, Y107R, A125S
VL: B2 VL with S25N, R52S, S78T, P83D, E85D, N87D
B5: Hu-13 (antibody, V domains shown)
VH: EVQLLESGGGLVQPGGSLRVACAASGFPLRSYAMSWVRQAPGKGLEWVSVTSGSGGSTYYADSVKGRFTISRDNSKSTVYLQMNSLRAEDTAVYYCAKDRGYDILTGYYDYFYGMDVWGQGTTVTVSS
VL: DIQMTQSPSSLSASVGDRVTITCRASQGIRNDLGWFQQKPGKAPKRLIYAASSLQSGVPSRFSGSGSGTEFTLTISSLQPEDFATYYCLQHNSYPYTFGQGTKLEIK
B6: NBL-014G (antibody, human IgG1, kappa, V domains shown)
VH: EVQLLESGGGLVQPGGSLRLSCAASGFTFSSFAMTWVRQAPGKGLEWVSSLSGSGRSTYYAASMKGRFTISRDNSKNTLYLQMNSLRAEDTAIYYCAKSLSYYHYYFDYWGQGTLVTVTS
VL: DIQLTQSPSFLSASVGDRVPITCRASQGISNFLAWYQQKPGKAPELLIHSASTLQSGVPSRFSGSGSGTEFTLTISNLQPQDFATYYCQQVNSYPLTFGGGTKVEIKR
modifications: low, or no IgG core fucose (non- or afucosylated)
B7: NBL-014 (antibody, human IgG1, kappa, V domains shown)
VH: B6 VH
VL: B6 VL
B8: Ms19 (antibody, V domains shown)
VH: EVQLQQSGPELVKPGASVKMSCKASGYTFTSYVIHWVKQKPGQGLEWIGYINPYNDGSKYNEKFKGKATLTSDKSSSTAYMELSSLTSEDSAVYYCAREGYGKRNALDYWGQGTSVTVSS
VL: DIVMTQSPSSLSVSAGERVTMSCKSSQSLLNSGNQKNYLAWYQQKPGQPPKLLIYGASTRESGVPDRFTGSGSGTDFTLIISSVQVEDLAVYYCQNDHFYPLTFGAGTKLELK
B9: Ms13 (antibody, V domains shown)
VH: EVQLQQSGPELVKPGASVKMSCKASGYTFTRYIMHWVKQKPGQGLEWIGYFNPYNDDSKTSEKFKGKATLTSDKSSSTAYMEINSLTSEDSAVYYCAKLRQERIAYWGQGTLVTVSA
VL: DIQMNQSPSSLSASLGDTITITCHASQNIDVWLSWYQQKPGNFPKLLIYKASNLHTGVPSRFSGSGSGTGFTLTISSLQPEDIATYYCQQGQSYPLTFGAGTKLELK
B10: Ms15 (antibody, V domains shown)
VH: EVQLQQSGPELVRPGASVKMSCRASGYTFTNYIIHWVKQKPGQGLEWIGYFNPYNDGTKYNEIFKDKATLTSDKSSSTAYMELRSLTSEDSAVYYCAKLRQERIAYWGQGTLVTVSA
VL: B9 VL with A25V, F43I
B11: Ms17 (antibody, V domains shown)
VH: B9 VH with R31N, M34I, D57G, S58I, K59E, T60Y, I83L, N84S, A97S, I104F
VL: B9 VL with D30N, F43I
B12: Ms22 (antibody, V domains shown)
VH: QVQLKESGPGLVAPSQSLSITCTVSGFSLTSNGVHWVRQPPGKGLEWLGVIWAGGSTNYNSALMSRLSISKDNSKSQVFLKMNSLQTHDTAMYYCARDKYDGTGFDYWGQGTTLTVSS
VL: QIVLTQSPAIMSASPGEKVTMTCSASSSVSNMYWYQQKPGSSPRLLIYDTSNLASGVPVRFSGSGSGTSYSLTISRMEAEDAATYYCQQWSSYPYTFGGGTKLEIK
B13: Ms18 (antibody, V domains shown)
VH: QVQLKESGPGLVAPSQSLSITCTVSGFSLISYGVHWVRQPPGKGLEWLGVIWAGGNTNYNSALMSRLSISKDNSKSQVFLKMNSLQTDDTAMYYCARVYYGNSFDYWGQGTTLTVSS
VL: DIVMTQSPSSLTVTAGEKVTMSCKSSQSLLNSGNQKNYLTWYQQKPGQPPKLLIYWASTRQSGVPDRFTGSGSGTDFSLTISSVQAEDLAVYYCHNDYTYPLTFGAGTKLELK
B14: Ms21 (antibody, V domains shown)
VH: DVQLVESGGGLVQPGGSRKLSCAASGFTFSTFGMHWVRQAPEKGLEWVAFINGDSSSIYYADTVKGRFTISRDNPKNILFLQMTSLRSEDTAMYYCARFARGNSFDYWGQGTTLTVSS
VL: B13 VL with L30F, G47W, Q61E, S78T, S82T, A86T, H95Q, N96I, D97G
B15: Ms20 (antibody, V domains shown)
VH: EIQLQQSGPELMKPGASVKISCKASGYSFTSYYMHWVKQSHGKSLEWIGYFDPYNGGTNYNQKFKGKATLTADKSSSTAYMHLSSLTSEDSAVYYCACYRFFAVWGAGTTVTVSS
VL: B13 VL with Q61E, S78T, H95Q, T99S

Target: human claudin 18 isoform 2 (claudin 18.2) (human)
Assay: cell-based or functional assay

Row | Binder | ADCC EC50, CHO-18.2 target cells (mouse FcγRIV reporter bioluminescence) [nM]
1 | B1 | 1.51
2 | B2 | 0.77
3 | B3 | 1.42
4 | B4 | 2.39
5 | B5 | 1.17

Target: human claudin 18 isoform 2 (claudin 18.2) (human)
Assay: cell-based or functional assay
Remark: another data set of the same source

Row | Binder | endocytosis derived cell toxicity EC50, CHO-18.2 cells (anti-IgG Fc-MMAF co-internalization) [nM]
6 | B1 | 1.31
7 | B2 | 1.61
8 | B3 | 1
9 | B4 | 1.55
10 | B5 | 2.16

Target: T1, human claudin 18 isoform 1 (claudin 18.1) (human, UniProt P56856 1-261)
T1 construct: Recombinant on transfected CHO cells (CHO-CLDN18.1); also called CLDN18.1
Assay: immunofluorescence imaging on CHO cells expressing human CLDN18.1, antibody at 10 µg/ml
Method: (§1) The specific cellular binding affinity of anti-Claudin18.2 antibodies was tested on CHO-CLDN18.2 (transfected CHO cell expressing recombinant human CLDN18.2) and CHO-CLDN18.1 (transfected CHO cell expressing recombinant human CLDN18.1) cells. The cells were plated in complete media containing F12 with 10% FBS, then incubated overnight at 37° C., anti-Claudin18.2 antibodies were serial diluted and added to the assay plates, incubated at 4° C. for 2 hours, followed by fixing cells and further staining the cells for 30 minutes with Alexa Fluor® 488 Goat Anti-Human IgG (H+L) secondary antibody, invitrogen Cat #A-11013 for detection. The binding was assessed by imaging the cells and quantifying the fluorescence intensity using a Biotek Cytation.

T1 sequence (P56856 whole entry, canonical isoform): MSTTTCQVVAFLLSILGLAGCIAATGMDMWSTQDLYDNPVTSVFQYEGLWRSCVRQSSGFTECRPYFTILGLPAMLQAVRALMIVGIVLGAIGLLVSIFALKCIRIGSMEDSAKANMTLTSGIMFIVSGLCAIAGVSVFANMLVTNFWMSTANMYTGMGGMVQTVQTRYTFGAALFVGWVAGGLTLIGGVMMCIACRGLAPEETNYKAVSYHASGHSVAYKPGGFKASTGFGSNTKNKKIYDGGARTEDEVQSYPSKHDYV

Row | Binder | binding result
11 | B2 | no binding (tested: 10 µg/ml)
12 | B4 | no binding (tested: 10 µg/ml)

Target: human claudin 18 isoform 2 (claudin 18.2) (human)
Assay: cell-based or functional assay
Remark: another data set of the same source

Row | Binder | ADCC EC50, CHO-claudin18.2 cells (human FcγRIIIa reporter bioluminescence) [nM] | ADCC EC50, NUGC-4 cells (human FcγRIIIa reporter bioluminescence) [nM] | ADCC EC50, PATU8988S cells (human FcγRIIIa reporter bioluminescence) [nM] | CDC EC50, CHO-claudin18.2 cells (human serum, flow cytometry) [nM] | fold improvement of ADCC EC50 over parental NBL-014, CHO-claudin18.2 cells (human FcγRIIIa reporter bioluminescence) [fold] | fold upshift of maximum ADCC effect over parental NBL-014, NUGC-4 cells (human FcγRIIIa reporter bioluminescence) [fold] | fold upshift of maximum ADCC effect over parental NBL-014, PATU8988S cells (human FcγRIIIa reporter bioluminescence) [fold] | fold improvement of CDC EC50 over PC1 (in-house iMAb36), CHO-claudin18.2 cells (human serum, flow cytometry) [fold]
13 | B6 | 0.02 | 0.06 | 0.04 | 0.3 | 35 | ~3 | ~33 | 
14 | B7 | 0.73 | 0.4 | 0.12 | 0.22 |  |  |  | ~10

Target: T1, human claudin 18 isoform 1 (claudin …)
Assay: imaging, CHO-CLDN18.1 cells, single concentration (FIG. 3A)
Method: as §1

Row | Binder | binding result
15 | B8 | no binding (tested: 10 µg/ml)
16 | B9 | no binding (tested: 10 µg/ml)
17 | B10 | no binding (tested: 10 µg/ml)
18 | B11 | no binding (tested: 10 µg/ml)
19 | B12 | no binding (tested: 10 µg/ml)
20 | B13 | no binding (tested: 10 µg/ml)
21 | B14 | no binding (tested: 10 µg/ml)
22 | B15 | no binding (tested: 10 µg/ml)

Target: T2, human claudin 18 isoform 2 (claudin 18.2) (human)
T2 construct: Recombinant on transfected CHO cells (CHO-CLDN18.2) or endogenous on tumor cell lines PATU8988S, NUGC-4, KATOIII; the cell line is named under assay; also called CLDN18.2
Assay: imaging, PATU8988S cells (endogenous CLDN18.2); +++ = EC50 between 2 nM and 20 nM

Row | Binder | EC50 [nM]
23 | B8 | 2 to 20
24 | B9 | 2 to 20
25 | B10 | 2 to 20
26 | B11 | 2 to 20
27 | B12 | 2 to 20
28 | B13 | 2 to 20
29 | B14 | 2 to 20
30 | B15 | 2 to 20

Target: T2, human claudin 18 isoform 2 (claudin …)
Assay: imaging, PATU8988S cells (endogenous CLDN18.2); ++ = EC50 between 20 nM and 100 nM
Method: Tumor cells were plated in complete media containing RPMI1640 with +10% FBS, then incubated overnight at 37° C., Claudin18.2 antibodies were serial diluted and added to the assay plates, incubated at 4° C. for 2 hours, followed by fixing cells and further staining the cells for 30 minutes with Alexa Fluor® 488 Goat Anti-Human IgG (H+L) secondary antibody (invitrogen Cat #A-11013) for detection. The binding was assessed by imaging the cells and quantifying the fluorescence intensity using a Biotek Cytation.

Row | Binder | EC50 [nM]
31 | B1 | 20 to 100
32 | B2 | 20 to 100
33 | B3 | 20 to 100
34 | B4 | 20 to 100
35 | B5 | 20 to 100

Target: T2, human claudin 18 isoform 2 (claudin …)
Assay: cell-based or functional assay

Row | Binder | endocytosis derived cell toxicity EC50, CHO-18.2 cells (anti-IgG Fc-MMAF co-internalization) [nM]
36 | B8 | 1.36
37 | B9 | 0.71
38 | B10 | 1.15
39 | B11 | 0.81
40 | B12 | 1.61
41 | B13 | 1.39
42 | B14 | 0.95
43 | B15 | 1.07

Target: T2, human claudin 18 isoform 2 (claudin …)
Assay: immunofluorescence imaging, CHO-CLDN18.2 cells, serial dilution
Method: as §1

Row | Binder | EC50 [nM]
44 | B8 | 2.3
45 | B1 | 17
46 | B9 | 1.2
47 | B10 | 1.8
48 | B11 | 1.4
49 | B2 | 3.6
50 | B3 | 3.7
51 | B4 | 5.2
52 | B5 | 5.6
53 | B12 | 2.6
54 | B13 | 1.3
55 | B14 | 1.5
56 | B15 | 1.3
